The experiment has as its target F-actin (polymerized human platelet actin) (human) (UniProt P60709). The experiment can be described thus: co-sedimentation.

Percent of NMY-2 S1 fragment in the pellet with F-actin data for three substances are collected here from doi:10.1101/333286.

Substance “NMY-2(S1)-MLC4-MLC5 complex, NMY-2(R252A) S1 fragment (from UniProt G5EBY3 1-874; Q09510 1-172; Q9XVI9 1-142)” yielded a percent of NMY-2 S1 fragment in the pellet with F-actin of 42%. For “NMY-2(S1)-MLC4-MLC5 complex, NMY-2(S251A) S1 fragment (from UniProt G5EBY3 1-874; Q09510 1-172; Q9XVI9 1-142)” the value was 91%; for “NMY-2(S1)-MLC4-MLC5 complex, wild-type NMY-2 S1 fragment (from UniProt G5EBY3 1-874; Q09510 1-172; Q9XVI9 1-142)”, 66%.
